Values of other authors, collected in PMC5828189.

Biological target: C1q globular head (gC1q) (Homo sapiens) (UniProt P02745)
Chain of UniProt P02745 (P02745 23-245, chain 1 of 3): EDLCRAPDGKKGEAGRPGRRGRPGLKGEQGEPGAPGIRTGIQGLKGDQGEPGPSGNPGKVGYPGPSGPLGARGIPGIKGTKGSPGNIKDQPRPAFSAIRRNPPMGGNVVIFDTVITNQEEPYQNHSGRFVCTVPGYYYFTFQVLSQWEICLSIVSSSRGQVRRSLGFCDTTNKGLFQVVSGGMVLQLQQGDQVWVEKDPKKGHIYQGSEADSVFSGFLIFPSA
Chain of UniProt P02745 (P02746 28-253, chain 2 of 3, further chain): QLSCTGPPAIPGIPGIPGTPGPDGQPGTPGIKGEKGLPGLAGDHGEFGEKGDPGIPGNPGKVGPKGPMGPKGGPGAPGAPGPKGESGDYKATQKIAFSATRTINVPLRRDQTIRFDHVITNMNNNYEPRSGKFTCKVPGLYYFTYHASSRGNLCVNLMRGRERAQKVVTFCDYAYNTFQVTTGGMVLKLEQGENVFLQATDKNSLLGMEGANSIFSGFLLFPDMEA
Chain of UniProt P02745 (P02747 29-245, chain 3 of 3, further chain): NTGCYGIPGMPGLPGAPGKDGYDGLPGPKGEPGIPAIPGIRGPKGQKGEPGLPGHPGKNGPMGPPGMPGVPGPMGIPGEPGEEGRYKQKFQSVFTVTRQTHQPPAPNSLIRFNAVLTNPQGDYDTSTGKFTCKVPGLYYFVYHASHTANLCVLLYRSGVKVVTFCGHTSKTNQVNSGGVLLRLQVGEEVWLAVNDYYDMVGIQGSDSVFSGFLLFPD

Kd: 75 nM
Substance: HABP1/p32/gC1qR (from UniProt Q07021)
